The results in this text go back to the Immune Epitope Database (IEDB).

Where only a bound is given, the exact number is not on record here.

Assay [1] deals with HLA-A*02:01. Nature of the assay: IEDB peptide-MHC binding, cellular MHC/competitive/fluorescence; ≥ and ≤ were set here for values at or beyond the usual limits of such assays.
The target in another assay is HLA-A*02:02. The assay is described as above.
The target in a further assay is HLA-A*02:03. The description is as above.
A further assay addresses HLA-A*02:06. The description is as above.
In the next assay the target is HLA-A*68:02. The assay is described as above.
Assay [2] addresses HLA-A*02:01. Nature of the assay: IEDB peptide-MHC binding, purified MHC/competitive/radioactivity; ≥ and ≤ were set here for values at or beyond the usual limits of such assays. The conditions noted are these: source organism: Vaccinia virus WR.
The mark [3] stands for this setting: source organism: Vaccinia virus WR.
Where [4] appears, read: source organism: Influenza A virus.

Usually IC50 stands for the midpoint of a concentration-inhibition curve. On to PTPKKMNIVT, for which the 50% inhibitory concentration (IC50) with HLA-A*02:01 [1] (setting [3]) was not below 70 µM; in the assay with HLA-A*02:02 (setting [3]) it was 65.8 µM; with HLA-A*02:03 (setting [3]), 55.7 µM; with HLA-A*02:06 (setting [3]), not below 70 µM; in the assay with HLA-A*68:02 (setting [3]), not below 70 µM.
PVIVPDIKL: the half-maximal inhibitory concentration (IC50) with HLA-A*02:01 [1] (setting [3]) is 52.8 µM; with HLA-A*02:02 (setting [3]), 41.2 µM; with HLA-A*02:03 (setting [3]) it was 32.7 µM; with HLA-A*02:06 (setting [3]) it was 51.4 µM; in the assay with HLA-A*68:02 (setting [3]), 29.9 µM.
For SIENKHQRRL, the IC50 with HLA-A*02:01 [1] (setting [3]) was not below 70 µM; with HLA-A*02:02 (setting [3]) it was 17 µM; with HLA-A*02:03 (setting [3]), 21.1 µM; with HLA-A*02:06 (setting [3]), 53.6 µM; with HLA-A*68:02 (setting [3]) it was not below 70 µM.
For the sequence YTLIYRQLT, the half-maximal inhibitory concentration (IC50) with HLA-A*02:01 [1] (setting [3]) was 28.5 µM; with HLA-A*02:02 (setting [3]) it was 6.41 µM; in the assay with HLA-A*02:03 (setting [3]), 9.42 µM; in the assay with HLA-A*02:06 (setting [3]) it was 17.6 µM; in the assay with HLA-A*68:02 (setting [3]) it was 7.86 µM.
In the case of RISSSLDQT, the IC50 is 63.6 µM with HLA-A*02:01 [1] (setting [3]); 6.79 µM with HLA-A*02:02 (setting [3]); 12.8 µM with HLA-A*02:03 (setting [3]); 27.8 µM in the assay with HLA-A*02:06 (setting [3]); 67.5 µM with HLA-A*68:02 (setting [3]).
Take DISVNASKTI: the 50% inhibitory concentration (IC50) with HLA-A*02:01 [1] (setting [3]) was 14.7 µM; in the assay with HLA-A*02:02 (setting [3]), 46.8 µM; with HLA-A*02:03 (setting [3]), 11.9 µM; in the assay with HLA-A*02:06 (setting [3]) it was not below 70 µM; with HLA-A*68:02 (setting [3]), 14.5 µM.
The like results for TIDNIVTSLA were, in that order, not below 70 µM, not below 70 µM, not below 70 µM, not below 70 µM and not below 70 µM.
As to PLHIVCSKTV, the IC50 in the assay with HLA-A*02:01 [1] (setting [3]) amounted to 21.3 µM; in the assay with HLA-A*02:02 (setting [3]), 34.5 µM; with HLA-A*02:03 (setting [3]) it was 5.27 µM; in the assay with HLA-A*02:06 (setting [3]) it was 27 µM; with HLA-A*68:02 (setting [3]), 9.35 µM.
Turning to VTGSYNLVDT, the 50% inhibitory concentration (IC50) in the assay with HLA-A*02:01 [1] (setting [3]), with HLA-A*02:02 (setting [3]), with HLA-A*02:03 (setting [3]), in the assay with HLA-A*02:06 (setting [3]) and with HLA-A*68:02 (setting [3]) was not below 70 µM each time.
For PACVYGLA, the IC50 was 68.7 µM with HLA-A*02:01 [1] (setting [4]); not below 70 µM in the assay with HLA-A*02:02 (setting [4]); not below 70 µM in the assay with HLA-A*02:03 (setting [4]); not below 70 µM with HLA-A*02:06 (setting [4]); 52.3 µM in the assay with HLA-A*68:02 (setting [4]).
Turning to NLPFDKTTIMA, the 50% inhibitory concentration (IC50) is 25 µM with HLA-A*02:01 [1] (setting [4]); 7.7 µM with HLA-A*02:02 (setting [4]); 8.43 µM in the assay with HLA-A*02:03 (setting [4]); not below 70 µM with HLA-A*02:06 (setting [4]); 11 µM with HLA-A*68:02 (setting [4]).
Take IAEYIAGLKI: the IC50 in the assay with HLA-A*02:01 [1] (setting [3]) was 7.83 µM; with HLA-A*02:02 (setting [3]), 28.6 µM; in the assay with HLA-A*02:03 (setting [3]), 23 µM; with HLA-A*02:06 (setting [3]), 10.2 µM; with HLA-A*68:02 (setting [3]) it was 5.85 µM.
TVPSERGL: the IC50 with HLA-A*02:01 [1] (setting [4]) is 52.9 µM; with HLA-A*02:02 (setting [4]), not below 70 µM; with HLA-A*02:03 (setting [4]), not below 70 µM; in the assay with HLA-A*02:06 (setting [4]), not below 70 µM; with HLA-A*68:02 (setting [4]), 65 µM.
For VLKAMHDKKI, the half-maximal inhibitory concentration (IC50) with HLA-A*02:01 [1] (setting [3]) is not below 70 µM; with HLA-A*02:02 (setting [3]), 48.9 µM; in the assay with HLA-A*02:03 (setting [3]), 33.9 µM; with HLA-A*02:06 (setting [3]), not below 70 µM; with HLA-A*68:02 (setting [3]) it was not below 70 µM.
On to VIVENDNVI, for which the 50% inhibitory concentration (IC50) came to 25.6 µM in the assay with HLA-A*02:01 [1] (setting [3]); 15.5 µM in the assay with HLA-A*02:02 (setting [3]); 19.5 µM with HLA-A*02:03 (setting [3]); 7.24 µM with HLA-A*02:06 (setting [3]); 8.02 µM with HLA-A*68:02 (setting [3]).
The corresponding values for CVRNLEELTT are 45.2 µM, 12.6 µM, 15.2 µM, 43 µM and 33.1 µM.
Take YLEKANKI: the IC50 with HLA-A*02:01 [1] (setting [4]) is 12.3 µM; with HLA-A*02:02 (setting [4]), 8.22 µM; with HLA-A*02:03 (setting [4]), 38.3 µM; in the assay with HLA-A*02:06 (setting [4]), not below 70 µM; with HLA-A*68:02 (setting [4]) it was not below 70 µM.
As to LAEYIRHRNT, the concentration for half-maximal inhibition (IC50) was not below 70 µM in the assay with HLA-A*02:01 [1] (setting [3]); 36.1 µM with HLA-A*02:02 (setting [3]); 14 µM with HLA-A*02:03 (setting [3]); not below 70 µM in the assay with HLA-A*02:06 (setting [3]); 52.4 µM in the assay with HLA-A*68:02 (setting [3]).
For the sequence IMECSRMLDT, the IC50 with HLA-A*02:02 (setting [3]) was 5.24 µM; in the assay with HLA-A*02:03 (setting [3]) it was 7.2 µM; with HLA-A*02:06 (setting [3]), not below 70 µM; with HLA-A*68:02 (setting [3]), not below 70 µM; with HLA-A*02:01 [2], 3.1 µM.
For QQNNSFIIST, the half-inhibitory concentration (IC50) is 7 µM with HLA-A*02:02 (setting [3]); 5.04 µM with HLA-A*02:03 (setting [3]); 5.71 µM in the assay with HLA-A*02:06 (setting [3]); 8.51 µM in the assay with HLA-A*68:02 (setting [3]); 1.23 µM with HLA-A*02:01 [2].
SILNNPVDT: the concentration for half-maximal inhibition (IC50) worked out at 47.1 µM with HLA-A*02:02 (setting [3]); 30.6 µM with HLA-A*02:03 (setting [3]); 14.2 µM with HLA-A*02:06 (setting [3]); 46.8 µM with HLA-A*68:02 (setting [3]); 4.63 µM with HLA-A*02:01 [2].
The corresponding values for IAVFDSKLI are 7.85 µM, 11.9 µM, 11.9 µM, 6.79 µM and 3.85 µM.
The like results for LLDEPLSPDT were, in that order, 8.51 µM, 10.1 µM, 7.84 µM, not below 70 µM and 3.6 µM.
